Test results as given in publication doi:10.1101/487769.
Values joined by “and” are separate entries in the source; they are usually repeats but may differ in a detail not shown here. Equal entries are not always repeated.

Biological target: Hfq-FLAG (Yersinia pestis Hfq with C-terminal 3 x Flag tag) (Yersinia pestis)
Assay: native gel or EMSA

Which stoichiometry N does the source give for “Hfq-FLAG (Yersinia pestis Hfq with C-terminal 3 x Flag tag) (natural protein)” here?
Its stoichiometry N is 3 and 6.
